Laboratory results reported in article PMC9666628 (Nature Communications, 2022).

T1: wild-type Cbx8 chromodomain (tags removed) (human, UniProt Q9HC52 8-61)
T1 construct: chromodomain of human Cbx8; also called Cbx8.wt; source: E. coli BL21(DE3), purified (Ni-NTA; tags removed with TEV protease)
T1 sequence: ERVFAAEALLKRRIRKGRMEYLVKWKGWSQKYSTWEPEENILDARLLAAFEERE

T2: wild-type Cbx2 chromodomain (tags removed) (human, UniProt Q14781 9-62)
T2 construct: chromodomain of human Cbx2; also called Cbx2.wt; source: E. coli BL21(DE3), purified (Ni-NTA; tags removed with TEV protease)
T2 sequence: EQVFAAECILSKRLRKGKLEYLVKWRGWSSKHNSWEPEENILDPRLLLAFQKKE

T3: Cbx7 K33E chromodomain (tags removed) (human, UniProt O95931 7-66, K33E)
T3 construct: chromodomain of human Cbx7 (Cbx7-chromo), UniProt O95931; source: E. coli BL21(DE3), purified (Ni-NTA; tags removed with TEV protease)
T3 sequence: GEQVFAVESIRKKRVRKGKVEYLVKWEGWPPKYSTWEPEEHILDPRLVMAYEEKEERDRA

T4: Cbx7 Q9D chromodomain (tags removed) (human, UniProt O95931 7-66, Q9D)
T4 construct: chromodomain of human Cbx7 (Cbx7-chromo), UniProt O95931; source: E. coli BL21(DE3), purified (Ni-NTA; tags removed with TEV protease)
T4 sequence: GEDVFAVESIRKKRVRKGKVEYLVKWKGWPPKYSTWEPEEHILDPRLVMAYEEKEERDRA

T5: Cbx7.V1 (tags removed, used for FP and ITC) (human, UniProt O95931 7-66, E8D (printed as the back-mutation D8E) | Q9D | V10I (printed as the …))
T5 construct: chromodomain of human Cbx7 (Cbx7-chromo), UniProt O95931; source: E. coli BL21(DE3), purified (Ni-NTA; tags removed with TEV protease)
T5 sequence: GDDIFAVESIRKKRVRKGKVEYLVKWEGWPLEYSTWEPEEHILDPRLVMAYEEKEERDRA

T6: Cbx7.VD chromodomain, Q9D/K33E (tags removed) (human, UniProt O95931 7-66, Q9D | K33E)
T6 construct: chromodomain of human Cbx7 (Cbx7-chromo), UniProt O95931; source: E. coli BL21(DE3), purified (Ni-NTA; tags removed with TEV protease)
T6 sequence: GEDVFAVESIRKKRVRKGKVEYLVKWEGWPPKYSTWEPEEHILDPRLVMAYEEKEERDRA

T7: wild-type Cbx7 chromodomain (tags removed) (human, UniProt O95931 7-66)
T7 construct: chromodomain of human Cbx7 (Cbx7-chromo), UniProt O95931; also called Cbx7.wt; source: E. coli BL21(DE3), purified (Ni-NTA; tags removed with TEV protease)
T7 sequence: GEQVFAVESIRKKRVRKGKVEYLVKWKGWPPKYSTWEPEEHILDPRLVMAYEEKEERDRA

B1: H3K9me3 peptide, N-terminal FITC (peptide)
chain: ARTKQTARKSTGGKAPR
modifications: trimethyl-lysine at K9; fluorescein isothiocyanate (FITC) at the N-terminus

Legend:
Test in all cases: fluorescence polarisation; 0.5 nM FITC-labelled peptide; chromodomains 200-0.2 µM (wild type) or 50 µM-50 nM (Cbx7.V1 and all Cbx.VDs); 30 min at 25 °C; 25 mM HEPES pH 7.5, 150 mM NaCl, 1 mM DTT, 0.01% TritonX-100; one-site total binding model
Settings in all cases: both partners purified
[1] = target: T1, wild-type Cbx8 chromodomain (tags …)
[2] = target: T8, wild-type Cbx5 chromodomain (tags removed) (human, UniProt P45973 18-75)
T8 construct: chromodomain of human Cbx5; also called Cbx5.wt; source: E. coli BL21(DE3), purified (Ni-NTA; tags removed with TEV protease)
T8 sequence (P45973 18-75, looked up): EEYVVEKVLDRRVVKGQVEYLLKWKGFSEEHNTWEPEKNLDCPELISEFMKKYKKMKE

[3] = target: T9, wild-type Cbx1 chromodomain (tags removed) (human, UniProt P83916 20-73)
T9 construct: chromodomain of human Cbx1; also called Cbx1.wt; source: E. coli BL21(DE3), purified (Ni-NTA; tags removed with TEV protease)
T9 sequence (P83916 20-73, looked up): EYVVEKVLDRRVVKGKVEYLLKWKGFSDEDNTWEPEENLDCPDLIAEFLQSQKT

[4] = target: T2, wild-type Cbx2 chromodomain (tags …)
[5] = target: T10, wild-type Cbx3 chromodomain (tags removed) (human, UniProt Q13185 29-86)
T10 construct: chromodomain of human Cbx3; also called Cbx3.wt; source: E. coli BL21(DE3), purified (Ni-NTA; tags removed with TEV protease)
T10 sequence (Q13185 29-86, looked up): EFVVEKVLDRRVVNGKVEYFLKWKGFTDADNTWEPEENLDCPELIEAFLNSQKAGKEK

[6] = target: T3, Cbx7 K33E chromodomain (tags removed)
[7] = target: T4, Cbx7 Q9D chromodomain (tags removed)
[8] = target: T5, Cbx7.V1 (tags removed, used for FP and …)
[9] = target: T6, Cbx7.VD chromodomain, Q9D/K33E (tags …)
[10] = target: T7, wild-type Cbx7 chromodomain (tags …)
[11] = target: B1

Binder	Kd [1] [µM]	Kd [2] [µM]	Kd [3] [µM]	Kd [4] [µM]	Kd [5] [µM]	Kd [6] [µM]	Kd [7] [µM]	Kd [8] [µM]	Kd [9] [µM]	Kd [10] [µM]	Kd [11] [µM]
B1	> 200	5	0.5	> 200	2	20	10	7	8	30	
Cbx6.VD chromodomain, Asp9/Glu33 (tags removed) (domain or fragment) GEDVFAAESIIKRRIRKGRIEYLVKWEGWAIKYSTWEPEENILDSRLIAAFEQKERERELYGP											> 50
